From IntAct's records for PubMed 16127465

B1: Growth/differentiation factor 5 (Homo sapiens), P43026 (parent)
chain: MRLPKLLTFLLWYLAWLDLEFICTVLGAPDLGQRPQGTRPGLAKAEAKERPPLARNVFRPGGHSYGGGATNANARAKGGTGQTGGLTQPKKDEPKKLPPRPGGPEPKPGHPPQTRQATARTVTPKGQLPGGKAPPKAGSVPSSFLLKKAREPGPPREPKEPFRPPPITPHEYMLSLYRTLSDADRKGGNSSVKLEAGLANTITSFIDKGQDDRGPVVRKQRYVFDISALEKDGLLGAELRILRKKPSDTAKPAAPGGGRAAQLKLSSCPSGRQPAALLDVRSVPGLDGSGWEVFDIWKLFRNFKNSAQLCLELEAWERGRAVDLRGLGFDRAARQVHEKALFLVFGRTKKRDLFFNEIKARSGQDDKTVYEYLFSQRRKRRAPLATRQGKRPSKNLKARCSRKALHVNFKDMGWDDWIIAPLEYEAFHCEGLCEFPLRSHLEPTNHAVIQTLMNSMDPESTPPTCCVPTRLSPISILFIDSANNVVYKQYEDMVVESCGCR

Variants of: B1
Details: with bmr1b_human BMPR1B

| effect of a mutation on the interaction | Variant |
| --- | --- |
| decreasing interaction strength | MRLPKLLTFLLWYLAWLDLEFICTVLGAPDLGQRPQGTRPGLAKAEAKERPPLARNVFRPGGHSYGGGATNANARAKGGTGQTGGLTQPKKDEPKKLPPRPGGPEPKPGHPPQTRQATARTVTPKGQLPGGKAPPKAGSVPSSFLLKKAREPGPPREPKEPFRPPPITPHEYMLSLYRTLSDADRKGGNSSVKLEAGLANTITSFIDKGQDDRGPVVRKQRYVFDISALEKDGLLGAELRILRKKPSDTAKPAAPGGGRAAQLKLSSCPSGRQPAALLDVRSVPGLDGSGWEVFDIWKLFRNFKNSAQLCLELEAWERGRAVDLRGLGFDRAARQVHEKALFLVFGRTKKRDLFFNEIKARSGQDDKTVYEYLFSQRRKRRAPLATRQGKRPSKNLKARCSRKALHVNFKDMGWDDWIIAPLEYEAFHCEGLCEFPLRSHPEPTNHAVIQTLMNSMDPESTPPTCCVPTRLSPISILFIDSANNVVYKQYEDMVVESCGCR [L441P] |

Variants of: B1
Details: with bmr1a_human BMPR1A

| effect of a mutation on the interaction | Variant |
| --- | --- |
| increasing interaction strength | MRLPKLLTFLLWYLAWLDLEFICTVLGAPDLGQRPQGTRPGLAKAEAKERPPLARNVFRPGGHSYGGGATNANARAKGGTGQTGGLTQPKKDEPKKLPPRPGGPEPKPGHPPQTRQATARTVTPKGQLPGGKAPPKAGSVPSSFLLKKAREPGPPREPKEPFRPPPITPHEYMLSLYRTLSDADRKGGNSSVKLEAGLANTITSFIDKGQDDRGPVVRKQRYVFDISALEKDGLLGAELRILRKKPSDTAKPAAPGGGRAAQLKLSSCPSGRQPAALLDVRSVPGLDGSGWEVFDIWKLFRNFKNSAQLCLELEAWERGRAVDLRGLGFDRAARQVHEKALFLVFGRTKKRDLFFNEIKARSGQDDKTVYEYLFSQRRKRRAPLATRQGKRPSKNLKARCSRKALHVNFKDMGWDDWIIAPLEYEAFHCEGLCEFPLLSHLEPTNHAVIQTLMNSMDPESTPPTCCVPTRLSPISILFIDSANNVVYKQYEDMVVESCGCR [R438L] |
